Series [1] has as its target T1, RhlB (E. coli DEAD-box RNA helicase), wild type (E. coli) (UniProt P0A8J8).
T1 sequence: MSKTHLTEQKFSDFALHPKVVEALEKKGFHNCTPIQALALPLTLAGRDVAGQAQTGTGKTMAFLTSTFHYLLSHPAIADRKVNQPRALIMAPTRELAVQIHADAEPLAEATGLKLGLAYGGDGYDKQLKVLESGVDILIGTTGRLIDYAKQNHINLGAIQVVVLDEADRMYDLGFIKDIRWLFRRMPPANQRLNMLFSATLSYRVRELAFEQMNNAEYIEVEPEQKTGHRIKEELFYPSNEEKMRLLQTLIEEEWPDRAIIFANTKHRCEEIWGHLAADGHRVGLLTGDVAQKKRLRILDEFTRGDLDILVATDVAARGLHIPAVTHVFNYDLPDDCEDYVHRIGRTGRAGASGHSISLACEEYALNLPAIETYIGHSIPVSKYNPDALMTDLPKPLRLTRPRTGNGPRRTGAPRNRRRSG

For series [2], the target named is T1, RhlB (E. coli DEAD-box RNA helicase), wild type (E. coli). This is another data set of the same source.
In series [3] the target is RhlB;RNase E (694-790) (Escherichia coli;Escherichia coli, UniProt P0A8J8;P21513 1-421;694-790, |). In words: NMR (1H imino titration); no ATP; 4.5 mM Mg2+; NMR: 150 mM KCl, 25 mM Tris/HCl, 5 mM DTT, 4.5 mM MgCl2, pH 8.3, 288 K, 100 µM RNA; EMSA: 150 mM NaCl, 25 mM Tris, 1.5 mM MgCl2, 5 mM DTT, 10% glycerol, pH 8.3, 4 C, 1.5 µM RNA. The settings on record: protein: recombinant;recombinant, tags: C-terminal TEV site (ENLYFQG) + 6xHis, His-tag removed by TEV, site remnant left;N-terminal 6xHis-TEV, purified analogously (tag cleaved), copies: 1;1.

Series [4] deals with T2, RhlB (Escherichia coli, UniProt P0A8J8 1-421).
T2 sequence: T1 sequence
Described as above. The settings on record: protein: recombinant, tags: C-terminal TEV site (ENLYFQG) + 6xHis, His-tag removed by TEV, site remnant left.

Series [5] addresses T3, RhlB (E. coli DEAD-box RNA helicase), wild type (E. coli, UniProt P0A8J8 1-421).
T3 sequence (looked up): T1 sequence
Nature of the series: cell-based or functional assay.

[6] abbreviates: label: none (titration), 3' overhang 8 nt.
The mark [7] stands for this setting: label: none (titration), single strand, two weak base pairs under NMR conditions.

The values that follow come from article PMC10500059, “Allosteric activation of RhlB by RNase E induces partial duplex opening in substrate RNA” (Frontiers in Molecular Biosciences, 2023).

Molecule “RNase E (628-843) (from UniProt P21513 628-843) (domain or fragment)” gave an ATP turnover rate of RhlB (EnzChek phosphate assay, 2.4 uM RhlB and RNase E fragment, 6 uM RNA substrates of different topology), fold increase over RhlB alone in series [1] below 27 fold. In series [2], this molecule had an ATP turnover of RhlB with 5'-OV RNA, activation factor over RhlB alone, 31P real-time NMR experiment (400 uM RhlB/RNase E 1:1, 100 uM RNA) of 2 fold and an ATP turnover of RhlB with 5'-OV RNA, activation factor over RhlB alone, phosphate assay of 10 fold.

B1: 3'-OV duplex (dsRNA)
RNA 1: UAGUAACUAAAACAUUAAAUU
RNA 2: GUUUUAGUUACUA
A word on the Kd: it is the constant that tells how readily two partners part at equilibrium. As to B1, the Kd was 82.3 ± 27.3 µM in series [3] (setting [6]) and 216 ± 33.7 µM in series [4] (setting [6]).

Turning to UAGUAACUAAAACAUUAAAUU (ssRNA) [21 nt single strand], the Kd in series [3] (setting [7]) was 264.5 ± 1 µM; in series [4] (setting [7]), 94.9 ± 59.2 µM.

B2: RNase E (694-790) (domain or fragment, E. coli, UniProt P21513 694-790, looked up)
chain: AKALNVEEQSVQETEQEERVRPVQPRRKQRQLNQKVRYEQSVAEEAVVAPVVEETVAAEPIVQEAPAPRTELVKVPLPVVAQTAPEQQEENNADNRD
As for B2, the “ATP turnover rate of RhlB (EnzChek phosphate assay, 2.4 uM RhlB and RNase E fragment, 6 uM RNA substrates of different topology), fold increase over RhlB alone” value in series [5] was at most 6 fold.

B3: Blunt duplex 21 nt (dsRNA)
RNA 1: UAGUAACUAAAACAUUAAAUU
RNA 2: AAUUUAAUGUUUUAGUUACUA
Regarding B3, in series [4] (label: none, blunt), the Kd stood at 162 ± 30.3 µM.

B4: Blunt duplex 13 nt (dsRNA)
RNA 1: UAGUAACUAAAAC
RNA 2: GUUUUAGUUACUA
As for B4, the Kd in series [3] (label: none, blunt) turned out to be 488 ± 40.5 µM; in series [4] (label: none, blunt), 155 ± 33.7 µM.
